Test results published in patent US20230277625A1 (SIMCHA IL 18, published 2023).

T1: Human IL-18BP (amino acids 31-194), biotinylated (human, UniProt O95998 31-194, biotin on the AviTag (BirA ligase) where used biotinylated)
T1 construct: Soluble decoy receptor; also called hIL-18BP; recombinant IL-18BP
T1 sequence: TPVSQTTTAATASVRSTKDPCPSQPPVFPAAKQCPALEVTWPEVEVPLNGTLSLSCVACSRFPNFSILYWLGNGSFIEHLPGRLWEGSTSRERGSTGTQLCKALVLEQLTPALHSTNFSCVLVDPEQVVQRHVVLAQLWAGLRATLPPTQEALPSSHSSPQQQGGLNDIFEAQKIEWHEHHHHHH

T2: Human IL-18Rα ectodomain (amino acids 19-329), biotinylated (human, UniProt Q13478 19-329, biotin on the AviTag (BirA ligase))
T2 construct: range 19-329; Secreted from insect cells (gp67 signal peptide removed); also called hIL-18Rα; hIL18Rα
T2 sequence: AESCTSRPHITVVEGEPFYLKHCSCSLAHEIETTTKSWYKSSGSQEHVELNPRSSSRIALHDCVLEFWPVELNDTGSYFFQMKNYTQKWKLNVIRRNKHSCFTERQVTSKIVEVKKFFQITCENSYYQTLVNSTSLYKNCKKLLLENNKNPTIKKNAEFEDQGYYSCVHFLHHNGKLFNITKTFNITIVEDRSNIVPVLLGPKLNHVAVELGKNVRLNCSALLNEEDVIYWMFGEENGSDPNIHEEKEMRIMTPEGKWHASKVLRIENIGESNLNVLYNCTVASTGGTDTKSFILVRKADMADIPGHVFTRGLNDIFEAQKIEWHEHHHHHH

T3: Mouse IL-18BP (amino acids 31-194), biotinylated (mouse, UniProt Q9Z0M9 29-193, biotin on the AviTag (BirA ligase))
T3 construct: also called mIL-18BP
T3 sequence: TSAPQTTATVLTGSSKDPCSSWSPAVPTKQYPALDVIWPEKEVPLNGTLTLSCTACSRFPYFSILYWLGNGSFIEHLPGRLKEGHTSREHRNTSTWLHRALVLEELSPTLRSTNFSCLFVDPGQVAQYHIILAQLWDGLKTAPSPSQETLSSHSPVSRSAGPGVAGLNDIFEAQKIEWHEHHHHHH

T4: Mouse IL-18Rα ectodomain (amino acids 19-329), biotinylated (mouse, UniProt Q61098 19-329, biotin on the AviTag (BirA ligase))
T4 construct: range 19-329; Secreted from Expi293 cells (H7 signal peptide removed); also called mIL-18Rα; mIL18Ra
T4 sequence: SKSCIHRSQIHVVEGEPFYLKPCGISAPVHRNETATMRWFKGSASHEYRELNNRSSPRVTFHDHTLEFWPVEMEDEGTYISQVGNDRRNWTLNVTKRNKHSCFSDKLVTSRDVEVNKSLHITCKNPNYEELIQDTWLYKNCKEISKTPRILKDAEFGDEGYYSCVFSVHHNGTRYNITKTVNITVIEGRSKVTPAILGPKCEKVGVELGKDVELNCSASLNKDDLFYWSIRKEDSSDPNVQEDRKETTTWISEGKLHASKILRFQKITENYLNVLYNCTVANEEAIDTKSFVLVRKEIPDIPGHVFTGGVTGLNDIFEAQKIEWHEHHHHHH

B1: SEQ ID NO: 35 (human DR-IL-18 variant hCS2) (ligand)
chain: YFGKLESKLSVIRNLNDQVLFIDQGNRPLFEDMTDSDCRDNAPRTIFIISTYKDKQPRAKAVTISVKCEKISTLSCENKIISFKEMNPPDNIKDTKSDIIFFQRDVPGHKHKMQFESSSYEGYFLACEKERDLFKLILKKEDELGDRSIMFTIQNED
notes: Engineered variant
B2: SEQ ID NO: 70 (murine DR-IL-18 variant mA7) (ligand)
chain: YFGRLHCTTAVIRNINDQVLFVDKRQPVFEDMTDIDQSASEPQTRLIIYAYGDNRVRGKAVTLSVKDSKMSTLSCKNKIISFEEMDPPENIDDIQSDLIFFQKRVPGHNKMEFESSLYEGHFLACQKEDDAFKLILKKKDENGDKSVMFTLTNLHQS
notes: Engineered variant

Experiments:
[1] = target: T1, Human IL-18BP (amino acids 31-194), …; test: on-yeast binding isotherms; 20 µM used for NBD; yeast-displayed variant, flow cytometry; ratio computed with 20 µM put in for NBD
[2] = target: T1, Human IL-18BP (amino acids 31-194), …; test: on-yeast binding isotherms; KD ratio relative to WT IL-18; yeast-displayed variant; ratio normalized to WT, from the 20 µM placeholder
[3] = target: T2, Human IL-18Rα ectodomain (amino acids …); test: SPR (Biacore T100), receptor captured via biotin, IL-18 as analyte
Method: (§1) Experiments were conducted using a Biacore T100 and carried out at 25° C. Biotinylated IL-18Rα or IL-18BP were immobilized onto a Biacore biotin capture chip (Series S CAP sensor chip, GE Healthcare) to yield an Rmax of ˜50 RU (IL-18Rα) or ˜10 RU (IL-18BP). Measurements were made with serial dilutions of the IL-18 variants in HEPES buffered Saline-P+buffer (10 mM HEPES pH 7.4, 150 mM NaCl, 0.005% surfactant P20). The surface was regenerated by three 60-sec injections of regeneration buffer (3/4 (v/v) 8M guanidine hydrochloride with 1/4 (v/v) 1M sodium hydroxide). Experiments were performed in multiple channels simultaneously for increased observations. All data were analyzed with the Biacore T100 evaluation software version 2.0 with a 1:1 Langmuir binding model.
To additionally characterize the receptor binding activities of the DR-IL-18 variants, the cytokines were expressed recombinantly and surface plasmon resonance for IL-18Rα and IL-18BP was performed (see FIG. 5B for representative traces).

[4] = target: T2, Human IL-18Rα ectodomain (amino acids …); test: on-yeast binding isotherm (flow cytometry), drawn summary table, IL18Rα (KD)
Method: (§2) Individual colonies of IL-18 yeast were grown overnight at 30° C. in SDCAA liquid media and induced in SGCAA liquid media for 1 day at 20° C. IL-18 display levels on yeast were verified by flow cytometry using an anti-cMyc tag antibody (anti-myc-PE; Cell Signaling Technologies). Receptor staining with biotinylated IL-18Rα (with or without IL-18R β) or biotinylated IL-18BP was performed in PBS supplemented with 0.5% BSA and 2 mM EDTA (PBE) on ice. All analysis was performed on a Sony SA3800 flow cytometer.

[5] = target: T3, Mouse IL-18BP (amino acids 31-194), …; test: on-yeast binding isotherms; KD ratio relative to WT IL-18; yeast-displayed variant; ratio normalized to WT, from the 10 µM placeholder
Method: as §2

[6] = target: T4, Mouse IL-18Rα ectodomain (amino acids …); test: SPR (Biacore T100), receptor captured via biotin, IL-18 as analyte
Method: as §1

[7] = target: T3, Mouse IL-18BP (amino acids 31-194), …; test: SPR; range of a group, this end tied to A7 by the 9th table; m is a multiple of 1,000,000
[8] = target: T3, Mouse IL-18BP (amino acids 31-194), …; test: SPR; KD for IL-18BP over KD for IL-18Rα; SPR; ratio of two measured KD
Method: as §1

[9] = target: T4, Mouse IL-18Rα ectodomain (amino acids …); test: on-yeast binding isotherm (flow cytometry)
Method: as §2

[10] = target: T3, Mouse IL-18BP (amino acids 31-194), …; test: SPR; KD ratio relative to WT IL-18; SPR; ratio normalized to WT
Method: as §1

[11] = target: T3, Mouse IL-18BP (amino acids 31-194), …; test: on-yeast binding isotherms; 10 µM used for NBD; yeast-displayed variant; ratio computed with 10 µM put in for NBD
Method: as §2

[12] = target: T3, Mouse IL-18BP (amino acids 31-194), …; test: SPR (Biacore T100), IL-18BP captured via biotin, IL-18 as analyte; SPR, soluble variant
Method: as §1

[13] = target: T3, Mouse IL-18BP (amino acids 31-194), …; test: yeast binding isotherms and SPR; members per FIG. 11A legend
Method: as §2, §1

| Binder | KD ratio IL-18BP/IL-18Rα [1] | Dissociation Constant Ratio normalized to WT IL-18 [2] | Kd [3] [nM] | Kd [4] [nM] | Dissociation Constant Ratio normalized to WT IL-18 [5] | Kd [6] [nM] | IL-18 BP:Rα Dissociation Constant Ratio [7] | KD ratio IL-18BP/IL-18Rα [8] | Kd [9] [nM] | Dissociation Constant Ratio normalized to WT IL-18 [10] | KD ratio IL-18BP/IL-18Rα [11] | Kd [12] [nM] | Kd [13] [nM] |
| --- | --- | --- | --- | --- | --- | --- | --- | --- | --- | --- | --- | --- | --- |
| B1 | > 219 | > 741 | 13.1 | 92 | – | – | – | – | – | – | – | – | – |
| B2 | – | – | – | – | > 3930 | 0.22 | 3.5e+07 | 63200 | 13.5 | 3.45e+07 | > 741 | 13900 | > 1000 |
